{"source": "patent US5795721", "target": "T1, FP505 (ICP4 residues 210-490 DNA-binding/dimerization domain fusion) (Herpes simplex virus 1) (UniProt P08392)", "T1 sequence": "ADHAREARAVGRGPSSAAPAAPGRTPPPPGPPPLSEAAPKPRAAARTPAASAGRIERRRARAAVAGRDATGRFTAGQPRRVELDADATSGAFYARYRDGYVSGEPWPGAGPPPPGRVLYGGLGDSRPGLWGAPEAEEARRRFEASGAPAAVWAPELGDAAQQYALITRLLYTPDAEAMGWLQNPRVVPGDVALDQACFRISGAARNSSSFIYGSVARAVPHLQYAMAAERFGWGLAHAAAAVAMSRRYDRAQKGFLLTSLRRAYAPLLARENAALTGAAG", "test": "filter", "data": [{"substance": "GGGAGGACAGTGCGGNNNNNNNNNNNNNNNNNNNNNNNNNNNNNNNNNNNNNNNNCAGTGCGTCAGTCAAC [random ssDNA pool]", "values": [{"measurement": "Kd", "setting": "with tRNA, >11 nM without tRNA", "result": "> 160", "unit": "nM"}]}, {"substance": "GGGAGACAAGAAUAAACGCUCAANNNNNNNNNNNNNNNNNNNNNNNNNNNNNNNNNNNNNNNNUUCGACAGGAGGCUCACAACAGGC [random RNA pool]", "values": [{"measurement": "Kd", "setting": "random pool", "result": "> 100", "unit": "nM"}]}, {"substance": "ICP0 promoter duplex 200mer", "values": [{"measurement": "Kd", "setting": "without tRNA, >1 uM with tRNA excess", "result": 0.5, "unit": "nM"}]}]}
